Source: patent US20230050056A1, “METHOD FOR SCREENING PORE-FORMING MEMBRANE PROTEINS, MEMBRANE TR[…] MOLECULAR SWITCHES” (TECHNISCHE UNIVERSITÄT DARMSTADT, priority 2019, published 2023)

Legend:
[1] = test system: inner membrane of E. coli; type: cell-based, E. coli BL21(DE3)
[2] = test system: inner membrane of E. coli; assay: G-GECO1 fluorescence screening of the 3xNNK S2168 pinholin library in microtiter plates (Example 12); conditions: for Comment: effect on pore formation: measured at the half-maximum time c, N-terminal variants of S21-71; for Slope [d]: sigmoid fit with equation 1 (high d = low slope), G-GECO1; for Slope [d] / Half-maximum time [c]: pCTRL2.T7.100.sRBS library; for Half-maximum time [c]: sigmoid fit with equation 1, G-GECO1, 0.5 mM IPTG
Procedure: Colonies of BL21(DE3) on LB agar from 3. were picked and cultivated in deep well plates with 300 μl of LB medium with the necessary antibiotics overnight for about 16 h at 37° C. and 1300 rpm.
After cultivating individual clones from 4. overnight, the OD600 of the precultures in microtiter plates was adjusted to 0.1, and the samples, 200 μL each, were shaken at 37° C. and 180 rpm for 30 min. Within the framework of the pCTRL2-^3×NNKS^2168 library, 271 clones were thus picked. Within the framework of the pCTRL2.T7.100.sRBS-^3×NNKS^2168 library, 576 clones were picked.
Subsequently, all nanopore variants were then induced with 0.5 mM IPTG, and the fluorescence was measured over another 190 min.
General information: The measurement in the reader is carried out at 30° C. every 3 min. The plate is shaken at 180 rpm between the measurements. The OD600 and the fluorescence (Ex: 485 nm; Em: 525 nm) are measured. The volume in the cavities is 200 μl after addition of all inductors.
For the analysis, the curves were fitted empirically with equation 1 in order to quantitatively determine the half-maximum time c or the slope d, for example.

E. coli = assay: G-GECO1 single-cell fluorescence microscopy in a microfluidic cultivation chamber (Example 11); conditions: for G-GECO1 fluorescent signal after expression: pCTRL2.T7.100 constructs, 0.5 mM IPTG
Procedure: Colonies of BL21(DE3) on LB agar plates from 1. were picked and cultivated in culture tubes with 2 ml of LB medium and the necessary antibiotics overnight for about 16 h at 37° C. and 180 rpm.
After the cultivation of individual clones from 2. overnight, the cells were transferred to fresh sterile-filtered LB medium, the OD600 of the precultures was 20 adjusted to 0.1, and subsequently grown at 37° C. for a period of 3 h up to an OD600 of 2.
For the cultivation and functional fluorescence-microscopic examination of the cells in a microfluidic cultivation chamber, it was possible to use a previously published microfluidic chip design (see Supplementary FIG. 5 in Nature Communications, 2020, 11, 2746).
After the microfluidic chip was flooded with LB medium, the cells were added and the flow rate through the microfluidic chip was adjusted to 1 μl/min. The cells were left in the microfluidic chip at 37° C. for 3 h, so that they were able to collect and grow accordingly in the cultivation chambers.
Thereafter, the expression of G-GECO1 was induced by a change to LB medium with 25 mM sodium propionate, pH 8.0, at 30° C. for 2 h.
Subsequently, the nanopores were then induced by a change to LB medium with 0.5 mM IPTG, and the development of the fluorescent signal was measured over 16 h.
The fluorescent signal was measured by means of a fluorescence microscope at 30° C. in intervals of 3 minutes. A transmitted-light image and then a fluorescence image (Ex: 488 nm; Em: 504-539 nm) in the form of a Z-stack were taken each time. From the induction of G-GECO1, a flow rate of 4 μl/min was used.
For the analysis, the entire cells from a single cultivation chamber (shown by way of example in FIG. 23) were analyzed with the aid of image analysis software (Fiji ImageJ 1.51; Nature Methods, 2012, 9, 676-82) and the fluorescence in relative fluorescence units (RFU) was plotted against the time (FIG. 24). Based on the curve of the fluorescent signal, detailed statements about the cell integrity or the outflow and the bleaching behavior of the sensor can then be made.

Molecule | Comment: effect on pore formation [2] | Slope [d] [2] | Half-maximum time [c] [2] | other results
HokB: Pore-forming membrane peptide; forms part of a bacterial efflux or toxin/antitoxin system (MKHNPLVVCLLIICITILTFTLLTRQTLYELRFRDGDKEVAALMACTSR; listed as Escherichia coli) | – | – | – | iGluSNFr fluorescent signal after co-expression (L-Glu outflow) [1]: reduction in the fluorescence
S^21-71 M4A (protein, Mutant of S21-71 anti-pinholin of bacteriophage P21) MKSADKISTGIAYGTSAGSAGYWFLQWLDQVSPSQWAAIGVLGSLVLGFLTYLTNLYFKIREDRRKAARGE | – | – | – | iGluSNFr fluorescent signal after co-expression (L-Glu outflow) [1]: reduction in the fluorescence
Clone P3E5 (protein, Mutant of S21-71 anti-pinholin of bacteriophage P21) MFQWDKISTGIAYGTSAGSAGYWFLQWLDQVSPSQWAAIGVLGSLVLGFLTYLTNLYFKIREDRRKAARGE | Inhibitory | 28.25 | 483.1 | –
Clone P14E5 (protein, Mutant of S21-71 anti-pinholin of bacteriophage P21) MYLEDKISTGIAYGTSAGSAGYWFLQWLDQVSPSQWAAIGVLGSLVLGFLTYLTNLYFKIREDRRKAARGE | Accelerating | 4.908 | 166.1 | –
Clone P14C11 (protein, Mutant of S21-71 anti-pinholin of bacteriophage P21) MNFEDKISTGIAYGTSAGSAGYWFLQWLDQVSPSQWAAIGVLGSLVLGFLTYLTNLYFKIREDRRKAARGE | Accelerating | 6.835 | 172.3 | –
Clone P7D10 (protein, Mutant of S21-71 anti-pinholin of bacteriophage P21) MAGWDKISTGIAYGTSAGSAGYWFLQWLDQVSPSQWAAIGVLGSLVLGFLTYLTNLYFKIREDRRKAARGE | Inhibitory | 22.49 | 304.1 | –
Clone P15D3 (protein, Mutant of S21-71 anti-pinholin of bacteriophage P21) MDWDDKISTGIAYGTSAGSAGYWFLQWLDQVSPSQWAAIGVLGSLVLGFLTYLTNLYFKIREDRRKAARGE | Accelerating | 6.727 | 187.4 | –
Clone P3G3 (protein, Mutant of S21-71 anti-pinholin of bacteriophage P21) MWRGDKISTGIAYGTSAGSAGYWFLQWLDQVSPSQWAAIGVLGSLVLGFLTYLTNLYFKIREDRRKAARGE | Inhibitory | 47.62 | 358.7 | –
S^107-M3A (protein, Mutant of S107 anti-pinholin of bacteriophage lambda) MKAPEKHDLLAAILAAKEQGIGAILAFAMAYLRGRYNGGAFTKTVIDATMCAIIAWFIRDLLDFAGLSSNLAYITSVFIGYIGTDSIGSLIKRFAAKKAGVEDGRNQ | – | – | – | iGluSNFr fluorescent signal after co-expression (L-Glu outflow) [1]: reduction in the fluorescence
T4 holin Wild-type: Wild-type of the T4 pinholin of bacteriophage T4 with highly pronounced pore-forming properties (protein, Bacteriophage T4) MAAPRISFSPSDILFGVLDRLFKDNATGKVLASRVAVVILLFIMAIVWYRGDSFFEYYKQSKYETYSEIIEKERTARFESVALEQLQIVHISSEADFSAVYSFRPKNLNYFVDIIAYEGKLPSTISEKSLGGYPVDKTMDEYTVHLNGRHYYSNLKFAFLPTKKPTPEINYMYSCPYFNLDNIYAGTITMYWYRNDHISNDRLESICAQAARILGRAK | – | – | – | cell division after expression (E. coli): stop quickly; time window before loss of cellular integrity or outflow of the sensor (E. coli): 30 min; time within which the fluorescent signal decreases again (E. coli): ≤ 30 min; G-GECO1 fluorescent signal after expression (E. coli): increase quickly
S^21-68: Wild-type of the S^21-68 pinholin of bacteriophage P21 with pronounced and defined pore-forming properties (protein, Bacteriophage P21) MDKISTGIAYGTSAGSAGYWFLQWLDQVSPSQWAAIGVLGSLVLGFLTYLTNLYFKIREDRRKAARGE | – | – | – | cell division after expression (E. coli): stop quickly; cellular integrity measured at the form of the cells (E. coli): remains intact over a comparatively long period of time; G-GECO1 fluorescent signal after expression (E. coli): increase quickly
